{"source": "paper PMC2175199", "about": "(The Journal of Cell Biology, 2000)", "binders": {"B1": {"name": "hRAD21 (natural protein)", "chain": "MFYAHFVLSKRGPLAKIWLAAHWDKKLTKAHVFECNLESSVESIISPKVKMALRTSGHLLLGVVRIYHRKAKYLLADCNEAFIKIKMAFRPGVVDLPEENREAAYNAITLPEEFHDFDQPLPDLDDIDVAQQFSLNQSRVEEITMREEVGNISILQENDFGDFGMDDREIMREGSAFEDDDMLVSTTTSNLLLESEQSTSNLNEKINHLEYEDQYKDDNFGEGNDGGILDDKLISNNDGGIFDDPPALSEAGVMLPEQPAHDDMDEDDNVSMGGPDSPDSVDPVEPMPTMTDQTTLVPNEEEAFALEPIDITVKETKAKRKRKLIVDSVKELDSKTIRAQLSDYSDIVTTLDLAPPTKKLMMWKETGGVEKLFSLPAQPLWNNRLLKLFTRCLTPLVPEDLRKRRKGGEADNLDEFLKEFENPEVPREDQQQQHQQRDVIDEPIIEEPSRLQESVMEASRTNIDESAMPPPPPQGVKRKAGQIDPEPVMPPQQVEQMEIPPVELPPEEPPNICQLIPELELLPEKEKEKEKEKEDDEEEEDEDASGGDQDQEERRWNKRTQQMLHGLQRALAKTGAESISLLELCRNTNRKQAAAKFYSFLVLKKQQAIELTQEEPYSDIIATPGPRFHII"}, "B2": {"name": "hSMC3 (natural protein)", "chain": "MYIKQVIIQGFRSYRDQTIVDPFSSKHNVIVGRNGSGKSNFFYAIQFVLSDEFSHLRPEQRLALLHEGTGPRVISAFVEIIFDNSDNRLPIDKEEVSLRRVIGAKKDQYFLDKKMVTKNDVMNLLESAGFSRSNPYYIVKQGKINQMATAPDSQRLKLLREVAGTRVYDERKEESISLMKETEGKREKINELLKYIEERLHTLEEEKEELAQYQKWDKMRRALEYTIYNQELNETRAKLDELSAKRETSGEKSRQLRDAQQDARDKMEDIERQVRELKTKISAMKEEKEQLSAERQEQIKQRTKLELKAKDLQDELAGNSEQRKRLLKERQKLLEKIEEKQKELAETEPKFNSVKEKEERGIARLAQATQERTDLYAKQGRGSQFTSKEERDKWIKKELKSLDQAINDKKRQIAAIHKDLEDTEANKEKNLEQYNKLDQDLNEVKARVEELDRKYYEVKNKKDELQSERNYLWREENAEQQALAAKREDLEKKQQLLRAATGKAILNGIDSINKVLDHFRRKGINQHVQNGYHGIVMNNFECEPAFYTCVEVTAGNRLFYHIVDSDEVSTKILMEFNKMNLPGEVTFLPLNKLDVRDTAYPETNDAIPMISKLRYNPRFDKAFKHVFGKTLICRSMEVSTQLARAFTMDCITLEGDQVSHRGALTGGYYDTRKSRLELQKDVRKAEEELGELEAKLNENLRRNIERINNEIDQLMNQMQQIETQQRKFKASRDSILSEMKMLKEKRQQSEKTFMPKQRSLQSLEASLHAMESTRESLKAELGTDLLSQLSLEDQKRVDALNDEIRQLQQENRQLLNERIKLEGIITRVETYLNENLRKRLDQVEQELNELRETEGGTVLTATTSELEAINKRVKDTMARSEDLDNSIDKTEAGIKELQKSMERWKNMEKEHMDAINHDTKELEKMTNRQGMLLKKKEECMKKIRELGSLPQEAFEKYQTLSLKQLFRKLEQCNTELKKYSHVNKKALDQFVNFSEQKEKLIKRQEELDRGYKSIMELMNVLELRKYEAIQLTFKQVSKNFSEVFQKLVPGGKATLVMKKGDVEGSQSQDEGEGSGESERGSGSQSSVPSVDQFTGVGIRVSFTGKQGEMREMQQLSGGQKSLVALALIFAIQKCDPAPFYLFDEIDQALDAQHRKAVSDMIMELAVHAQFITTTFRPELLESADKFYGVKFRNKVSHIDVITAEMAKDFVEDDTTHG"}, "B3": {"name": "hSMC1 (natural protein)", "chain": "MGFLKLIEIENFKSYKGRQIIGPFQRFTAIIGPNGSGKSNLMDAISFVLGEKTSNLRVKTLRDLIHGAPVGKPAANRAFVSMVYSEEGAEDRTFARVIVGGSSEYKINNKVVQLHEYSEELEKLGILIKARNFLVFQGAVESIAMKNPKERTALFEEISRSGELAQEYDKRKKEMVKAEEDTQFNYHRKKNIAAERKEAKQEKEEADRYQRLKDEVVRAQVQLQLFKLYHNEVEIEKLNKELASKNKEIEKDKKRMDKVEDELKEKKKELGKMMREQQQIEKEIKEKDSELNQKRPQYIKAKENTSHKIKKLEAAKKSLQNAQKHYKKRKGDMDELEKEMLSVEKARQEFEERMEEESQSQGRDLTLEENQVKKYHRLKEEASKRAATLAQELEKFNRDQKADQDRLDLEERKKVETEAKIKQKLREIEENQKRIEKLEEYITTSKQSLEEQKKLEGELTEEVEMAKRRIDEINKELNQVMEQLGDARIDRQESSRQQRKAEIMESIKRLYPGSVYGRLIDLCQPTQKKYQIAVTKVLGKNMDAIIVDSEKTGRDCIQYIKEQRGEPETFLPLDYLEVKPTDEKLRELKGAKLVIDVIRYEPPHIKKALQYACGNALVCDNVEDARRIAFGGHQRHKTVALDGTLFQKSGVISGGASDLKAKARRWDEKAVDKLKEKKERLTEELKEQMKAKRKEAELRQVQSQAHGLQMRLKYSQSDLEQTKTRHLALNLQEKSKLESELANFGPRINDIKRIIQSREREMKDLKEKMNQVEDEVFEEFCREIGVRNIREFEEEKVKRQNEIAKKRLEFENQKTRLGIQLDFEKNQLKEDQDKVHMWEQTVKKDENEIEKLKKEEQRHMKIIDETMAQLQDLKNQHLAKKSEVNDKNHEMEEIRKKLGGANKEMTHLQKEVTAIETKLEQKRSDRHNLLQACKMQDIKLPLSKGTMDDISQEEGSSQGEDSVSGSQRISSIYAREALIEIDYGDLCEDLKDAQAEEEIKQEMNTLQQKLNEQQSVLQRIAAPNMKAMEKLESVRDKFQETSDEFEAARKRAKKAKQAFEQIKKERFDRFNACFESVATNIDEIYKALSRNSSAQAFLGPENPEEPYLDGINYNCVAPGKRFRPMDNLSGGEKTVAALALLFAIHSYKPAPFFVLDEIDAALDNTNIGKVANYIKEQSTCNFQAIVISLKEEFYTKAESLIGVYPEQGDCVISKVLTFDLTKYPDANPNPNEQ"}}, "key": {"hSA2": {"target": "T1, hSA2 (human (endogenous in HeLa), UniProt Q8N3U4 1-1231)", "T1 sequence": "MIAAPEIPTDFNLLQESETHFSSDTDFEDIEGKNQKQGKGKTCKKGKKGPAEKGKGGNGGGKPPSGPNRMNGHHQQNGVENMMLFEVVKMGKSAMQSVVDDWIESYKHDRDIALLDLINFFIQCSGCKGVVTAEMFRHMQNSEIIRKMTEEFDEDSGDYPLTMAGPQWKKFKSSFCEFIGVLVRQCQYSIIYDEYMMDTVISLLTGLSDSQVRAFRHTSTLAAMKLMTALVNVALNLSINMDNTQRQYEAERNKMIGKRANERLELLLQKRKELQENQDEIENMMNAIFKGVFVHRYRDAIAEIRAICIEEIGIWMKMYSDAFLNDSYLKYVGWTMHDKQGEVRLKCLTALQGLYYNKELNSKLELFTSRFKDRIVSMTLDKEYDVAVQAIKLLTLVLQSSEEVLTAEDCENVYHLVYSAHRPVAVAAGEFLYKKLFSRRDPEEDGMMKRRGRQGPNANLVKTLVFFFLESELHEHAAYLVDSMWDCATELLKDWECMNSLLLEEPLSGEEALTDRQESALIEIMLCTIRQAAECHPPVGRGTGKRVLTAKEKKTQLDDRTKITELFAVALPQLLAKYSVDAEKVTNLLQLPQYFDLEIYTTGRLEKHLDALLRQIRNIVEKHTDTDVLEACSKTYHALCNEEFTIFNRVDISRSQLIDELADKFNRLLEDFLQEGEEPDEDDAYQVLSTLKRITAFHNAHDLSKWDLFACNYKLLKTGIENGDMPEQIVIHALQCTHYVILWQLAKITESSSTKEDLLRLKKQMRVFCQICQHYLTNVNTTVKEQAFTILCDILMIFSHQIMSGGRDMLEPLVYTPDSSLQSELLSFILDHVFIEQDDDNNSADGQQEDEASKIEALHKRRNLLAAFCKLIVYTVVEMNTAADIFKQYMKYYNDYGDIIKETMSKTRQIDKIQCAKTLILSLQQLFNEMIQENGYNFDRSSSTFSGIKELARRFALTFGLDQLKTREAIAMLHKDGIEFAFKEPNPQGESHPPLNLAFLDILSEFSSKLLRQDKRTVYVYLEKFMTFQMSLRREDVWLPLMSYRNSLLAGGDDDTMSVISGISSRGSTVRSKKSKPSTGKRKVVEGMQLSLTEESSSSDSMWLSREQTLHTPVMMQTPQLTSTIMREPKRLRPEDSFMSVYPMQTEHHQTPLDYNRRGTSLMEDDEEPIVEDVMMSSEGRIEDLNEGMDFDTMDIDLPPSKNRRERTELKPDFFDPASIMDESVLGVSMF", "test": "co-IP"}, "hSA1": {"target": "T2, hSA1 (human (endogenous in HeLa), UniProt Q8WVM7 1-1258)", "T2 sequence": "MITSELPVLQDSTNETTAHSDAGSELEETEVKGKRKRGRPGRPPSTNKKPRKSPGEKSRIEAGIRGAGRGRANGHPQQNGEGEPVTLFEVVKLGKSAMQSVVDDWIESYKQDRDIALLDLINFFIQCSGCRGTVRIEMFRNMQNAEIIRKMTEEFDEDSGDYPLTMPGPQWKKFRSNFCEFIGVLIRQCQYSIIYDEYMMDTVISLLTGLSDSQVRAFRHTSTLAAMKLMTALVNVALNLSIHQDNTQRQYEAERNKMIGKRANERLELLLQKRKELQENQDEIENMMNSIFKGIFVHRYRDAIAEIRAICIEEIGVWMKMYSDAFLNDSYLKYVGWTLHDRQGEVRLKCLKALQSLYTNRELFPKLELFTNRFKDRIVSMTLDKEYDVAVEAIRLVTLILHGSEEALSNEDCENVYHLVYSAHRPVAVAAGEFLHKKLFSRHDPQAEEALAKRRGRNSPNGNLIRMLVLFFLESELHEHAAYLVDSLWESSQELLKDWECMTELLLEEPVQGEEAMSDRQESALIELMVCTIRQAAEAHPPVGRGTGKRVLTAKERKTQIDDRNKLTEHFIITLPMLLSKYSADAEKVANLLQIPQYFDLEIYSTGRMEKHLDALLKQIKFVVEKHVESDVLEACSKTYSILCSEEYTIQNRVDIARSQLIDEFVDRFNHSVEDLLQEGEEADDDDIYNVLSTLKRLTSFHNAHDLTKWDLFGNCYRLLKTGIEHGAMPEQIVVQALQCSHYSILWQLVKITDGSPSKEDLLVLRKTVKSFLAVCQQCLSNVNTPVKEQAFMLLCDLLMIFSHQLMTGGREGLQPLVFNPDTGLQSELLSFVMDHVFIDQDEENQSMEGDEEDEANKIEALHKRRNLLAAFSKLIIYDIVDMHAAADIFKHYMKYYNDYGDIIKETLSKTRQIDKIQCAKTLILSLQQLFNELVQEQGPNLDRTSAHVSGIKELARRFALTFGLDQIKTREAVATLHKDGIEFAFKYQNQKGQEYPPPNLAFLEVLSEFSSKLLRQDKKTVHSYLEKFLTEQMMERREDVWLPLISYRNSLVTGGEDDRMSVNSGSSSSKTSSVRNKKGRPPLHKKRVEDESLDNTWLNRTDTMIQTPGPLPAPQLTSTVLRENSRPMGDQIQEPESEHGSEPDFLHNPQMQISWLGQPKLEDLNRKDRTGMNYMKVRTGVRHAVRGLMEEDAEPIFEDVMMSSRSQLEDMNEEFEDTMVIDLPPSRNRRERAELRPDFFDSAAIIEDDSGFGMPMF", "test": "co-IP"}}, "data": [{"binder": "B1", "values": [{"measurement": "percent removed from the extract by anti-XSA2", "setting": "hSA2", "result": "~75", "unit": "%"}, {"measurement": "percent removed from the extract by anti-XSA1", "setting": "hSA1", "result": "~25", "unit": "%"}]}, {"binder": "B2", "values": [{"measurement": "percent removed from the extract by anti-XSA2", "setting": "hSA2", "result": "~75", "unit": "%"}, {"measurement": "percent removed from the extract by anti-XSA1", "setting": "hSA1", "result": "~25", "unit": "%"}]}, {"binder": "B3", "values": [{"measurement": "percent removed from the extract by anti-XSA2", "setting": "hSA2", "result": "~75", "unit": "%"}, {"measurement": "percent removed from the extract by anti-XSA1", "setting": "hSA1", "result": "~25", "unit": "%"}]}]}
